Where two headings read alike, the source gives them in different places. Values belong to the molecule of their own block, whether it stands above or below them.
Experiments:
[1] = target: Cynomolgus macaque CD1d on cells (cynomolgus macaque); assay: flow cytometry, biotinylated antibody and streptavidin-PE on cynomolgus PBMC, gated live cells
[2] = target: T1, Human CD1d on cells (human, UniProt P15813 20-335); assay: cell-based or functional assay
T1 sequence (looked up): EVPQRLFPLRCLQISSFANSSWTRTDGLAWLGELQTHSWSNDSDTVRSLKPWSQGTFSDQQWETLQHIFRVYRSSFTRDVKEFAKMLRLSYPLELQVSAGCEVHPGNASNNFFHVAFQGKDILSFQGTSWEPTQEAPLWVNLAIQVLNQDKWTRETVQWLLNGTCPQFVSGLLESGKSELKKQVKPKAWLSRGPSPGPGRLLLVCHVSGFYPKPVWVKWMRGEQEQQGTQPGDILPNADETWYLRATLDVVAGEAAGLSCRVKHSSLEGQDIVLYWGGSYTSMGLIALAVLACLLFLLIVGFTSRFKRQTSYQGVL

[3] = target: T1, Human CD1d on cells; assay: cell-based or functional assay; remark: listed apart in the source
[4] = target: T2, CD1d tetramer loaded with α-GalCer (ProImmune) (UniProt P15813 20-301, limits assumed); assay: flow cytometry, inhibition of CD1d tetramer (10 nM) binding to NKTCR on J.RT3-T3.5 cells
T2 construct: Bought reagent; also called fluorochrome-conjugated CD1d tetramer
T2 sequence (looked up): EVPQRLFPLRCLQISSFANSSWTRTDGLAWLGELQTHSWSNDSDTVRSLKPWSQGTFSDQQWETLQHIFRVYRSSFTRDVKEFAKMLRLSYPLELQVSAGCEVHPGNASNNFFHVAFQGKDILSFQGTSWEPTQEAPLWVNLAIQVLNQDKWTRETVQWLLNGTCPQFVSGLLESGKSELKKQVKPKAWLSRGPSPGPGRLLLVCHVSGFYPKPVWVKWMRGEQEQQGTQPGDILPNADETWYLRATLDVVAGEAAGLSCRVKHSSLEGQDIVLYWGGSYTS

[5] = target: T1, Human CD1d on cells; assay: cell-based or functional assay; remark: listed apart in the source
[6] = target: T1, Human CD1d on cells; assay: cell-based or functional assay; remark: listed apart in the source
[7] = target: T3, Human CD1d/β2M (human, UniProt P15813 20-301; P61769 21-119); assay: SPR, Protein A purified IgG
T3 construct: also called hCD1d; recombinant human CD1d

[8] = target: T1, Human CD1d on cells; assay: cell-based or functional assay; remark: listed apart in the source
[9] = target: T3, Human CD1d/β2M; assay: SPR, transfection supernatant
[10] = target: T1, Human CD1d on cells; assay: cell-based or functional assay; remark: listed apart in the source

B1: 402.8.53 (antibody, IgG4, V domains shown)
VH: QVQLQESGPGLVKPSETLSLTCAVYGGSFSGYYWSWIRQPPGKGLEWIGEINHAGSTNYNPSLKSRVTISVDTSKNQFSLKLSSVTAADTAVYYCARGEIYDFWKSYLDVWGKGTTVTVSS
VL: QTVVTQEPSLTVSPGGTVTLTCASSSGAVSSGNFPNWFQQKPGQAPRALIFSASNKHSWTPARFSGSLLGGKAVLTLSGVQPEDEAEYYCLLYFGDTQLGVFGGGTKVTVLG
NKT IFN-γ EC50 (moDC) [5]: 0.000658 µg/mL | NKT IL-13 EC50 (moDC) [5]: 0.00152 µg/mL | NKT IFN-γ EC50 (moDC) [6]: 0.277 µg/mL | NKT IL-4 EC50 (moDC) [6]: 0.105 µg/mL

B2: 402.8.60 (antibody, IgG4, V domains shown)
VH: QVQLQESGPGLVRPSETLSLTCAVYGGSFSGYYWSWIRQPPGKGLEWIGEINHSGSTNYNPSLKSRVTISVDTSKNQFSLKLSSVTAADTAVYYCARGEIYDFYNSYMDVWGKGTTVTVSS
VL: QTVVTQEPSLTVSPGGTVTLTCASSSGAVSSGNFPNWFQQKPGQAPRALIFSASNKHSWTPARFSGSLLGGKAVLTLSGVQPEDEAEYYCLLYFGDTQLGVFGGGTKVTVLG
notes: IgG4 (S228P)
NKT IFN-γ EC50 (moDC) [5]: 0.000244 µg/mL | NKT IL-13 EC50 (moDC) [5]: 0.000189 µg/mL | NKT IFN-γ EC50 (moDC) [6]: 0.0247 µg/mL | NKT IL-4 EC50 (moDC) [6]: 0.0268 µg/mL | Kd [7]: 0.198 nM

B4: 402.8.84 (antibody, IgG4, V domains shown)
VH: QVQLQESGPGLVKPSETLSLTCAVYGGSFSGYYWSWIRQPPGKGLEWIGEINHAGSTNYNPSLKSRVTISVDTSKNQFSLKLSSVTAADTAVYYCARGEIYDFYKSYLDVWGKGTTVTVSS
VL: QTVVTQEPSLTVSPGGTVTLTCASSSGAVSSGNFPNWFQQKPGQAPRALIFSASNKHSWTPARFSGSLLGGKAVLTLSGVQPEDEAEYYCLLYFGDTQLGVFGGGTKVTVLG
notes: IgG4 (S228P)
NKT IFN-γ EC50 (moDC) [5]: 0.000516 µg/mL | NKT IL-13 EC50 (moDC) [5]: 0.000663 µg/mL | NKT IFN-γ EC50 (moDC) [6]: 0.0306 µg/mL | NKT IL-4 EC50 (moDC) [6]: 0.000593 µg/mL | Kd [7]: 0.587 nM

B5: 402.8.86 (antibody, IgG4, V domains shown)
VH: QVQLQESGPGLVKPSETLSLTCAVYGGSFSGYYWSWIRQPPGKGLEWIGEINHAGSTNYNPSLKSRVTISVDTSKNQFSLKLSSVTAADTAVYYCARGEIYDFYNSYMDVWGKGTTVTVSS
VL: QTVVTQEPSLTVSPGGTVTLTCASSSGAVSSGNFPNWFQQKPGQAPRALIFSASNKHSWTPARFSGSLLGGKAVLTLSGVQPEDEAEYYCLLYFGDTQLGVFGGGTKVTVLG
notes: IgG4 (S228P)
NKT IFN-γ EC50 (moDC) [6]: 0.0143 µg/mL | NKT IL-4 EC50 (moDC) [6]: 0.000721 µg/mL | Kd [7]: 0.357 nM

B6: 401.11.24 (antibody, IgG4, V domains shown)
VH: QVQLVGSGGGLVKPGRSLRLSCAASGFTFDDYAMHWVRQAPGKGLEWVATIIWNSAIIGYADSVKGRFIVSRDNAKNSLYLQMNSLRAEDTALYYCAKDMCSSSGCPDGYFDSWGQGTLVTVSS
VL: DIQMTQSPSSVSASVGDRVTITCRASQHISSWLAWYQQKPGKAPKLLIYAASSLQSGVSSRFSGSGSGTDFTLTISSLQPEDFATYYCQQANRFPLTFGGGTKLEIKR
notes: IgG4 (S228P)
NKT IFN-γ EC50 (THP-1) [8]: 0.00426 µg/mL | NKT IFN-γ EC50 (moDC) [8]: 0.00036 µg/mL | Kd [9]: 0.644 nM

B8: 401.11.86 (antibody, IgG4, V domains shown)
VH: QVQLVGSGGGLVKPGRSLRLSCAASGFTFDDYAMHWVRQAPGKGLEWVATIIWNSAIIGYADSVKGRFIVSRDNAKNSLYLQMNSLRAEDMALYYCAKDMCSSGGCPDGYFDSWGQGTLVTVSS
VL: DIQMTQSPSSVSASVGDRVTITCRASQHISSWLAWYQQKPGKAPNLLIYAASSLQSGVSSRFSGSGSGTDFTLTISSLQPEDFATYYCQQANRFPLTFGGGTKLEIKR
NKT IFN-γ EC50 (THP-1) [10]: 0.00129 µg/mL | NKT IFN-γ EC50 (moDC) [10]: 0.000359 µg/mL | NKT IL-4 EC50 (THP-1) [10]: 0.000509 µg/mL | NKT IL-4 EC50 (moDC) [10]: 0.00174 µg/mL

B9: 401.11.26 (antibody, IgG4, V domains shown)
VH: EVQLVESGGGLVQPGRSLRLSCAASGFTFDDYAMHWVRQAPGKGLEWVATIIWNSAIIGYADSVKGRFIVSRDNAKNSLYLQMNSLRAEDMALYYCAKDMCSSSGCPDGYFDSWGQGTLVTVSS
VL: DIQMTQSPSSVSASVGDRVTITCRASQHISSWLAWYQQKPGKAPNLLIYAASSLQSGVPSRFSGSGSGTDFTLTISSLQPEDFATYYCQQANRFPLTFGGGTKLEIKR
notes: IgG4 (S228P)
NKT IFN-γ EC50 (THP-1) [8]: 0.00325 µg/mL | NKT IFN-γ EC50 (moDC) [8]: 0.0013 µg/mL | Kd [9]: 0.855 nM

B10: 401.11.28 (antibody, IgG4, V domains shown)
VH: QVQLVGSGGGLVKPGRSLRLSCAASGFTFDDYAMHWVRQAPGKGLEWVATIIWNSAIIGYADSVKGRFIVSRDNAKNSLYLQMNSLRAEDTALYYCAKDMCSSSGCPDGYFDSWGQGTLVTVSS
VL: DIQMTQSPSSVSASVGDRVTITCRASQHISSWLAWYQQKPGKAPNLLIYAASSLQSGVPSRFSGSGSGTDFTLTISSLQPEDFATYYCQQANRFPLTFGGGTKLEIKR
NKT IFN-γ EC50 (THP-1) [8]: 0.00142 µg/mL | NKT IFN-γ EC50 (moDC) [8]: 0.000294 µg/mL

More lines, now with the values ahead:

percent CD1d-positive cells, Donor 1 [1]: 4.14% | percent CD1d-positive cells, Donor 2 [1]: 4.22%
Molecule: irrelevant specificity negative control antibody (human IgG1)

IFN-γ EC50 (C24:1 βGluCer, moDC) [2]: 0.139 µg/mL | IFN-γ EC50 (THP-1) [2]: 0.429 µg/mL | IFN-γ EC50 (primary CD14+ cells) [2]: 1.39 µg/mL | IL-2 release EC50 (U-937 + NKTCR cell line) [2]: 0.111 µg/mL | IL-4 EC50 (C24:1 βGluCer, moDC) [2]: 0.133 µg/mL | IL-4 EC50 (THP-1) [2]: 0.0761 µg/mL | IL-4 EC50 (primary CD14+ cells) [2]: 0.186 µg/mL | IL-5 EC50 (C24:1 βGluCer, moDC) [2]: 0.0819 µg/mL | IL-5 EC50 (THP-1) [2]: 0.0647 µg/mL | IL-5 EC50 (primary CD14+ cells) [2]: 0.108 µg/mL | IL-13 EC50 (C24:1 βGluCer, moDC) [2]: 0.0523 µg/mL | IL-13 EC50 (THP-1) [2]: 0.154 µg/mL | IL-13 EC50 (primary CD14+ cells) [2]: 0.844 µg/mL | NKT IFN-γ EC50 (moDC) [2]: > 1 µg/mL | NKT IL-4 EC50 (moDC) [2]: 0.137 µg/mL | NKT IL-5 EC50 (moDC) [2]: 0.287 µg/mL | TNF-α EC50 (C24:1 βGluCer, moDC) [2]: 0.00569 µg/mL | NKT IFN-γ EC50 (moDC) [3]: 0.116 µg/mL | NKT IL-13 EC50 (moDC) [3]: 0.0175 µg/mL | EC50 [4]: 1.44 µg/mL
Molecule: anti-CD1d antibody 42 (BD Biosciences)

IFN-γ EC50 (C24:1 βGluCer, moDC) [2]: 0.112 µg/mL | IFN-γ EC50 (primary CD14+ cells) [2]: 0.168 µg/mL | IL-2 release EC50 (U-937 + NKTCR cell line) [2]: 0.0773 µg/mL | IL-4 EC50 (C24:1 βGluCer, moDC) [2]: 0.113 µg/mL | IL-5 EC50 (C24:1 βGluCer, moDC) [2]: 0.0864 µg/mL | IL-13 EC50 (C24:1 βGluCer, moDC) [2]: 0.0668 µg/mL | IL-13 EC50 (primary CD14+ cells) [2]: 0.222 µg/mL | NKT IFN-γ EC50 (moDC) [2]: > 1 µg/mL | TNF-α EC50 (C24:1 βGluCer, moDC) [2]: 0.0297 µg/mL | EC50 [4]: 0.775 µg/mL
Molecule: anti-CD1d antibody 51.1 (eBioscience)

NKT IFN-γ EC50 (moDC) [6]: 0.0259 µg/mL | NKT IL-4 EC50 (moDC) [6]: 0.00101 µg/mL | Kd [7]: 0.344 nM
B3: 402.8.87 (antibody, IgG4, V domains shown)
VH: QVQLQESGPGLVKPSETLSLTCAVYGGSFSGYYWSWIRQPPGKGLEWIGEINHAGSTNYNPSLKSRVTISVDTSKNQFSLKLSSVTAADTAVYYCARGEIYDFYKSYMDVWGKGTTVTVSS
VL: QTVVTQEPSLTVSPGGTVTLTCASSSGAVSSGNFPNWFQQKPGQAPRALIFSASNKHSWTPARFSGSLLGGKAVLTLSGVQPEDEAEYYCLLYFGDTQLGVFGGGTKVTVLG
notes: IgG4 (S228P)

binding result [9]: no binding
B7: 401.11.27 (antibody, V domains shown)
VH: QVQLVGSGGGLVKPGRSLRLSCAASGFTFDDYAMHWVRQAPGKGLEWVATIIWNSAIIGYADSVKGRFTISRDNAKNSLYLQMNSLRAEDMALYYCAKDMCSSSGCPDGYFDSWGQGTLVTVSS
VL: DIQMTQSPSSVSASVGDRVTITCRASQHISSWLAWYQQKPGKAPNLLIYAASSLQSGVPSRFSGSGSGTDFTLTISSLQPEDFATYYCQQANRFPLTFGGGTKLEIK

Source: US20140286957A1 (Teva, published 2014)
